Assay [1] deals with p47^phox (Homo sapiens, UniProt P14598). Put plainly: ELISA of p47phox-p22phox peptide interaction. Type of assay: binding. A general note: ELISA stands for enzyme-linked immunosorbent assay.
For assay [2], the target named is T1, C111A-p47^phox (human, UniProt P14598 1-390, C111A).
T1 sequence (looked up): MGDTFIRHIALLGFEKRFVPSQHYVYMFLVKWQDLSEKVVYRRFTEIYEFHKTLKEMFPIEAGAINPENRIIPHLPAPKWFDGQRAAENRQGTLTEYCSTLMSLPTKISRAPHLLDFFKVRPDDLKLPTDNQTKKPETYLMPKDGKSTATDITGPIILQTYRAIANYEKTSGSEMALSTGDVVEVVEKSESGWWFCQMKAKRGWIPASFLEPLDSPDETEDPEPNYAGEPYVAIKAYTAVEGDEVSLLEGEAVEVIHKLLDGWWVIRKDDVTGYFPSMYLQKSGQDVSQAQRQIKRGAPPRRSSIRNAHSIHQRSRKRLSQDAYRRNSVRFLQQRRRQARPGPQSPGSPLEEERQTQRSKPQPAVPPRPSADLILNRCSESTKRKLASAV
Put plainly: ELISA.

In assay [3] the target is T2, C98G-p47^phox (human, UniProt P14598 1-390, C98G).
T2 sequence (looked up): T1 sequence (looked up) with C98G, A111C
The experiment in a line: ELISA.

The target in assay [4] is T3, C378A-p47^phox (human, UniProt P14598 1-390, C378A).
T3 sequence (looked up): T1 sequence (looked up) with A111C, C378A
The experiment in a line: ELISA.

Assay [5] addresses T4, C196A-p47^phox (human, UniProt P14598 1-390, C196A).
T4 sequence (looked up): T1 sequence (looked up) with A111C, C196A
The experiment in a line: ELISA.

Assay [6] deals with T5, His-p47^phox wild type (human, UniProt P14598 1-390).
T5 sequence (looked up): T1 sequence (looked up) with A111C
The experiment in a line: ELISA.

Numbering of substitutions follows the chain as printed. The star is where a group is joined. Biotin = O=C1N[C@H]2[C@H](CS[C@H]2CCCCC(=O)*)N1

p47^phox, sequence (P13498 2-195): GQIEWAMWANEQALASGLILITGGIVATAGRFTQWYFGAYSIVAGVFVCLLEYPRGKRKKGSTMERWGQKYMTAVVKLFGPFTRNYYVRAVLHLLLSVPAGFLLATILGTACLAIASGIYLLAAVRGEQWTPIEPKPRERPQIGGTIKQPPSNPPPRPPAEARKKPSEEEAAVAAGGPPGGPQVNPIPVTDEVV
p47^phox, sequence (P14598 whole entry): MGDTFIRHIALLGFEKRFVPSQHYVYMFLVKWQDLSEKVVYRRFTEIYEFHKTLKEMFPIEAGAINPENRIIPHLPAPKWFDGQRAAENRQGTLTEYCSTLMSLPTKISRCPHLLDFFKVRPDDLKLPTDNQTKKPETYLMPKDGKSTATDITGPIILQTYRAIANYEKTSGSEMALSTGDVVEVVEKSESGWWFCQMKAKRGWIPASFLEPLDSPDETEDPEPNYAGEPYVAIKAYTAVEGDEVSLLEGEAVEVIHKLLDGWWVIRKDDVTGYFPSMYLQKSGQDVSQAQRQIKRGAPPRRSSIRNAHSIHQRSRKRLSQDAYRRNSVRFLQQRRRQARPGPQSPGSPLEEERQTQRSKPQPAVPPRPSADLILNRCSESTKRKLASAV

For orientation: IC50 means the concentration at which inhibition is half-maximal. `O=C1C=CC(=O)c2ccccc21` [1,4-naphthoquinone] gave an IC50 in assay [1] of 700 nM.

B1: proline-rich p22^phox peptide (biotin-p22^phox) (peptide)
peptide: Biotin-SGSGPPSNPPPRPPAEARK-NH2
SMILES: C[C@H](NC(=O)[C@H](CCC(=O)O)NC(=O)[C@H](C)NC(=O)[C@@H]1CCCN1C(=O)[C@@H]1CCCN1C(=O)[C@H](CCCNC(=N)N)NC(=O)[C@@H]1CCCN1C(=O)[C@@H]1CCCN1C(=O)[C@@H]1CCCN1C(=O)[C@H](CC(N)=O)NC(=O)[C@H](CO)NC(=O)[C@@H]1CCCN1C(=O)[C@@H]1CCCN1C(=O)CNC(=O)[C@H](CO)NC(=O)CNC(=O)[C@H](CO)NC(=O)CCCC[C@@H]1SC[C@@H]2NC(=O)N[C@@H]21)C(=O)N[C@@H](CCCNC(=N)N)C(=O)N[C@@H](CCCCN)C(N)=O
B1: the binding result in assay [2], in assay [3], in assay [4], in assay [5] and in assay [6] was “binds” each time.
